Data from the domain aggregation screens of Martell et al. (2025).

Experiment: soluble fraction after stress (log2 fold change); higher = more stays soluble; pooled small domains, quantitative proteomics
Settings: stress: 75 degC
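Further: 20 min heating vs room temperature control held 20 min.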

Row | Sequence | soluble fraction (log2)
1 | HMVFQTAAEKAYEIISKKIMKGEYEPGMRLVRRQLAQELGVSPIPILEAMKRLEQDGLIEYKAHWGSIVTI | -2.29
2 | HMVSGLEILKIQVQDHPSDWRWALLLARTHYENGNREAAVRTLRPLQRLHPDRLEVMTLWALLA | -0.194
3 | HMSQQEAQLNSLVKIYESMKPKDAARIFDTLDMDVLLDVVMRMKEARSAAVLAEMTPDRAKEVTLQLAD | -0.912
4 | HMGPKALLKIPGLQEVDAELLFKEGYKSISAVASADPEMLKAIPGVDEQKVTEWVTGAEQILSQQVNKGA | 0.49
5 | HMKYNETEFKNLVAKLYNGEIEIVGKFTGLSYPILVKDKYGIMLSQKANLILNYRPTINIALNKTEYAMN | -0.289
6 | HMSDSGLPLPRFVSLGDDRVNARAGPGFRFPINWVYLRKNFPVEVIDEFGHWRRIKDIDGIEGWIHLSML | -0.793
7 | HMTVPTEVALELMHATALEDNEQRILYIASFKEKHREHLHATIEVDGQEVTLARYADLVATGAYL | -2.56
8 | HMHKREKSFFETIYDDIPGIGKKRRVQLLSAYPTLDSLKSVTLEELKQIVPEESAKLILEKRDSR | 0.0151
9 | HMKLNEQSMQVIDRIVDRHRGRPGPVKLMLHDVQKELGYIPFEAMEKIAAASGVSADEVYGVVTFYTQFTT | -0.919
10 | HMSRELVILGNSMLNNALKAFHVSPASIKKKHWDKLILDYHLESKNNILIDIALGKRINVMVAHQLTSIID | 0.408
11 | HMVLSVRERMGIVLEKVNTETFTDFKELFTVEEGRAGAIVSLLAILQLMKDSLIQLVQNEPNGPIYVKAA | -0.879
12 | HMQMKDRILRIMEHEGISPSKFAEEIGIQRSAMSHIISGRNNPSLDVLTKIMQRFTYVDTDWLLFGKGSMV | -1.99
13 | HMTGSALDATIEKLLDLGSKAGSVTEDEIQIVLKNVDVTDAQLSSIYQFLRDRGVEIVSATEDDD | 0.371
14 | HMLSRNEWLVMEALWERPSTLMELVRQLGQEPPGWAKSTTATMVRRMEEKGLIRHEAGSKARVYHP | -1.82
15 | HMTPDGNATVWSANGYGVRLRTGPGKGYAIIGVYSVGTTVKVLERGPAGGWDHIQVGSRVGYMMNEFLHYY | -3.16
16 | HMDSTTHALALVRTLPRDQAEAVLLRVVADLDYADVAEIMGRSPGAVRVLVHRGLRRLEQELATRRT | -0.574
17 | HMKNLTERQQRIIALISENPQTTRAEIAGAIGVATKTIERELTTLSNIVYYVGPKKGGHWEIIK | -1.51
18 | HMFDFLELGQAIQDAREKQRITREELAEELGISARHLQSVEKEGQYPSFRLFIQLVTMFHISVDQYI | -0.0535
19 | HMNPLDGTSVHPESYEAAEKLLKKQGFSLEDISGGKLTGLSLTIKDYARLAKELEIGEITLRDIVKELEK | -0.132
20 | HMVVLPGEVVALKIIQTGSSKDQGVGYLEDGTMVVVDGAKNSIGKTIEIQISRSHQTVAGRMLFGIAMS | -2.72

Row | Sequence | soluble fraction (log2)
21 | HMPSLNDRPDDVLYLFSYFLQSFSHRQVSLPKILKKALIQHDWWGNIRELHSVALRYYIFGDTLNGAYDSL | -0.99
22 | HMTIYLSENIKRLRLEKELTQETLSEFLGVTSQSVSNWERGESYPDITMLPEIADFFKVSVDELLGVNRAE | -2.26
23 | HMHRIKRRNDTLVSALDSIAGIGAKRKKALLQHFGSVRAIKAVSAEEIAKVEGISPTLANQIFEAL | -1.07
24 | HMVNTVEVQGNTIYSAEEIRSASGIQKGDNLFTLNKEAAAGSIKASLPYVETVSIIRFLPDKIVIEVKE | -0.57
25 | HMIISPKKLEYRQRIINALGDRKMSLNELSKAMGYKGITTKLSFTVDDMIKSGVIEKVMVGAYAKLHIP | -2.33
26 | HMGTESFGARIRKIREARDWTPAALAEATGQTPEFVARVERDEVAPPVAFLLRLAAALGVDPSTF | -0.557
27 | HMQLASILDDIPGIGKKRKENLLTHFGSFSKIQSADIDALAEVPGISRDLAETIHTYLKTHQ | -0.0246
28 | HMEDDRMLVWFFRKSIQNGAQSEAEGRPIFEGKDYVHIQQPGERDYIEREAHQGDIGRWPRHWQAYQEGR | 0.246
29 | HMTQTDINQIETLVHEGNKLAAVKLLMDTAHIGLKEAKDIIDNFFLGKQTDLQAAVAQVQTR | 0.902
30 | HMTLGSVRTVRQVLDDGRLLVADSGGNVTLVRRAGTLAKENVNTGDRVSVDSSVRFALTLIPV | -0.931
31 | HMAPQVKIPNLVDVSQRQAEAILNSYGLKVGHLIYKPDLAKDAVLGFMFNGRSLKAGDELAKGSSIDLILG | -0.277
32 | HMTEAVYMPALQNKTLEEAQRIVEQYDLELEYTYEANAQVEEGRILSQTPQMGVLVERGEKVQAVVSLG | 1.01
33 | HMTGIESVKPSSDFTVEGNRIVAGDAEVEVYDLAGRKVNNNNLTTGVYIAKIAGSAESVKVFV | 0.144
34 | HMLKIAENIYQRRKEKNITQEELADFMMVTKASVSKWETGQSYPDILLLPKLATFFNVTVDELIGYEPQ | -2.72
35 | HMSKSKSEIDKDPHFWSSLFQRIGEGESLRKIAKDSKIPKSTLWAWIRNDPQLALRYSEAQQ | 0.0521
36 | HMQDYISAEEAKSAALSASQVDSAGAAFSAAELGEKNGIPYYEVAFTADGLEYRYAIDAQTGTVIESSSSG | 0.156
37 | HMSIESPEEFNAKFPPGSEIYATNIQKNAIVQSPANAKGDVEILANSMRLTINFRFISKRDT | -1.6
38 | HMEINEDEIYEKIMIEIEQDNKVKSTWAKALSQSDGNKDKAESLYISMRFEELKYHQSYQKEELNLKDNQQ | 0.0614
39 | HMKQVNVVSVIGQSEANAKTTLTGLGLKVNVAYEEDTSKADGIVLKQSLEGGKTVNEGTTITITVNKIA | 0.579
